Assay results reported in the RNAGym collection of RNA variant scans (doi:10.1073/pnas.2313332121).

B1: TPR t1 (parent)
chain: GACCAAUCUGCCCUCAGAGCUCGAGAACAUCUUCGGAUGCAGAGGAGGCAGGCUUCGGUGGCGCGAUAGCGCCAACGUCCUCAACCUCCAAUGCAUCCCACCACAUGAUGAUGCCUGAAGAGCCUUGGUUUUUUG

Variants of: B1
Assay: polymerase ribozyme fitness, log enrichment relative to wild type (log ratio); higher = more active; in vitro selection for triplet polymerase activity
Method in brief: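 Each subunit of a heterodimeric triplet polymerase ribozyme was mutagenized into a library by PCR, transcribed, and subjected to one round of in vitro selection, run in triplicate. Libraries were annealed with a biotinylated primer, the partner subunit and triplets, incubated frozen at −7 °C, and extended constructs were gel-excised, captured on streptavidin beads and recovered by RT-PCR. Input and output libraries were sequenced on Illumina, keeping genotypes with ≥10 input reads and ≥1 read per output. Fitness is log base 2 of genotype enrichment divided by wild-type enrichment, from inverse-variance-weighted replicate averages.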

Variant	polymerase ribozyme fitness (log ratio)
G60A C115A G120U	-0.811
A37U G48A A105U A111U	-6.33
C22U U112A	-2.83
C4U C53U C64U A84G	-1.67
C40A C56G U87G A95U C101A C124A U133C	-5.07
C40G G61U A91U C104U	-3.37
C64U C79U	-0.541
G113A G128U	-2.37
G35A U87G	-3.91
G45U A84C C94A	-2.59
A90G C94U C97A C124A	-0.528
C40G G45U A90U G93U	-4.32
U7C C22U C64U C88U C123U	-2.65
A41G A46C C88U C104U	-0.948
G47U U55C C101G	-2.84
C8U C28U C73U	-1.68
G19C C115G	-2.22
A5C G117U	-3.58
C13A C40A G52A C56U	-2.98
A50U A83U U133A	-0.994
A41U C56G G71U C79U G117C	-6.29
A16G C34A	-3.22
G17U A118U	-3.56
G51U G52A C79A	-5.44

Variant	polymerase ribozyme fitness (log ratio)
U81A A83U C115A	-1.27
A41G G69U A74U U81A	-1.11
C12G C20A A26U	-5.8
A50G G69U	0.675
A37C G44U C56G C73A C86U	-5.78
G42A A103U U112A	-7.34
A37U U38C C53U	-1.6
A16G G61A	-1.13
G42A C89A A108G	-4.56
G42A C72G	-2.43
C11A G36A A50G G113C	-4.17
G10C C85A	-0.827
C82A U109G	-4.53
A5U U14C A18U G45U G71U A121C	-5.73
U116G U130C	-2.14
G52C C114U	-3.57
A37G C53A G57U	0.602
G52U A83U G127A	-3.16
C12U G35A	-3.06
G61C C72U	0.273
G47A C88U C102U	-3.29
G52U C64U U132A	-1.1
C15A A18U C98U G107C G113U U125G	-6.57
C8A G61C	-0.912

Variant	polymerase ribozyme fitness (log ratio)
U54A A105U	-1.84
C8G U96C	0.587
C79G G122A	-2.11
G19C U92A C114U U133A	-1.16
C73A C115G	-2.61
A90U G93A G110A U131G	-5.42
C49U C72U A75U U106G	-3.16
C11A U54A C123A	0.93
C12U G44C C79A C89A	-1.32
G35A C123G U129G	-2.61
C8U G61C	-1.18
G69A C101A	-3.72
C13A A24U G63C A83U A84C G120U G122A U125A	-6.79
G63C U87A	-1.59
A2C U7C G113U G120C	-4.07
C49A U54A G77U	-0.966
C12G U78C A111U	-3.23
G60A U109A U133G	-5.4
C72G C88U A91C A118U G122U	-2.76
U59A C62U C82U G120A	0.193
C49G A83G	0.789
G45U A50U	-2.62
C79U U129G	-1.35
U14A G25U C34U G52U C56A A90G G93C C114G A121C G135A	-6.59

Variant	polymerase ribozyme fitness (log ratio)
A27G G61A	-1.92
A6G A43G G57U C73U U81A	-3.53
C11U G110U	-1.5
G10C G61A U96A	-0.958
G45C C97A	-4.5
G135A	-0.639
C12U G45C C104A G117A	-3.2
C62A G117C A118C U131C	-5.12
A26G A111U	-2.41
G39A A75U G110C	-5.51
C40G C114U C123U	-4.09
C86A A100C	-1.66
C40U C88A C101A A121U	-0.199
C70U G120A	0.259
C15A U92G	-4.55
C13U C15A A91C	-4.3
G36U C102U	-2.93
A37C U96G	0.787
G10U C11G C62G	-1.22
G47C C86A	-0.437
G63A C88A	-1.42
C20A G47A	-3.54
G23C A37G C40A G45A G57A C114A A118U	-7.04
A37U G77A A90U C123U	-0.717

Variant	polymerase ribozyme fitness (log ratio)
A41U A43U G113A C124A	-1.71
A2U A6U G57U G120C	-4.53
A26G A46G G63A	-3.44
G51U G61C G117C U131G	-7.34
U7G G39A G58A G69C C97U	-1.38
A18G C56G A83U G110C	-4.59
C85A C101G	-3.91
A6U C8G G44C C64U U96C	-1.02
C82G A119U	-0.606
C4G C56U	-1.92
G10U G45U	-0.583
C11G A29U G117C	-3.19
C4G C53A C56U C99U U130G	-5.15
A27G G110A	-1.89
G45U C94U	-1.46
A68G U87G A118U U132A	-2
C8G C70U A74U C98U G110A	-6.03
U7C A74C C98U U112A	-2.74
G61U G122A	-0.264
A24G C85A	-3.6
U21C C72G C85A U116C	-3.42
G47U C72G G117U	-5.24
C12U G45U C70G U132C	-6.34
G107C	-5.46

Variant	polymerase ribozyme fitness (log ratio)
C4A C40U C62A U112A	-2.53
C72U A84U C85U C104U	-0.48
A41C G48A G60U G135U	-2.21
U9C U81C C98A	-5.87
U78A G120U	-0.295
C72U C88U	0.0321
G69C C102U	-3.02
G71A C86U	0.0346
G61A G93C	-0.381
U55C A111U G117A	-6.33
U30C	-1.66
C11A G61A C80U C98U A100U	-4.96
C115A U116A	-2.84
C3U C13U G44U U55C G63A A108U U112G G113C	-6.03
C12U C72G C86U C104U G122A	-0.0421
C8G C114A G135U	-0.31
C20U A37U C79U U112A	0.591
C22A C124A U134C	-4.93
C72A U81C	-0.634
A29C G69U G77U	-2.24
C49A G71U C89A U130C	-2.94
G93C C114A	-1.83
A18U A66U	-3.87
C12U U125A U126C	-0.829

Variant	polymerase ribozyme fitness (log ratio)
G36U G44A G47A G48U G69U C82G A121C	0.343
U30C C70U G113C	-3.79
A50C C53U A84G	-0.439
A2C C64U	-1.07
C49U C114U	-2.25
C53A G63U A74U C102G A103C A111G G117C	-6.88
A46U C56U C72G C123G	-3.53
A5G A24G A29C G36C G61A C70U G113A	-5.67
C11U A26U U54G	-2.81
C11A U33G U54A C70U A95C U112A	-6.99
C114G C124A G135A	-0.373
C4A C20A	-4.2
C3U G57C C62U C97U A108G C123U C124G	-1.18
G35A C72U A75U G77C C97U G120A U125A	-6.29
C3U G39A G69A A105C G120U G128C	-6.86
C28U G63A	-3.62
A29C G47A G69U	-1.84
C22A A111C A119U	-6.95
C8A A29U U55G	-1.42
C4A A5U C15G C88U G120C	-4.83
C40G G48U G69U	-1.67
C8G A50U G60U C123A G128U U130A	-0.561
G48A G71A C102A	-3.85
